Where a SMILES comes first, the peptide text is derived from it. [ ]: non-standard residue; d: D form. The star is where a group is joined. NH(Colchicin-10-yl) = COc1cc2c(c(OC)c1OC)-c1ccc(N*)c(=O)cc1[C@@H](NC(C)=O)CC2; FITC = O=C1OC2(c3ccc(O)cc3Oc3cc(O)ccc32)c2ccc(NC(=S)*)cc21; hPhe = N[C@@H](CCc1ccccc1)C(=O)O; Cit = NC(=O)NCCC[C@H](N)C(=O)O; βAla = NCCC(=O)O
Experiments:
[1] = Ex vivo stability in normal mouse plasma (LC/MS/MS); type: in vitro ADME
Text: (§1) [drawing 10] • a) Prodrug-1 has been screened using normal mouse plasma, normal mouse liver homogenate and experimental human tumour model homogenate (HT1080 xenograft; known to express majority of MMPs) ex vivo. Prodrug cleavage and metabolism were detected using LC/MS/MS. • a. Prodrug-1 was stable in plasma and liver, supporting systemic stability of these therapeutics (FIG. 1). • b. […] Plasma, tissues and tumours were collected at regular intervals post-dosing. Levels of prodrug and VDA2 were assessed by LC/MS/MS. • a. […] (FIG. 2) • d. […] VDA2 levels were detected at high levels in tumour tissue following prodrug-1 administration (FIG. 3) • f.
(§2) [drawing 11] • d) Compound 1 was modified in order to change the MMP-targeting of the compound from being pan-MMP to MT-MMP selective (Prodrug-2) • a. Arginine was incorporated in place of the Glutamic acid at the P4 position • b. […] Prodrug-2 cleavage and metabolism were detected using LC/MS/MS. • a. […] Prodrug-2 is not cleaved by recombinant MMP-9, in contrast to prodrug-1 • d. […] Plasma, tissues and tumours were collected at regular intervals post-dosing. Levels of prodrug-2 and VDA2 were assessed by LC/MS/MS. • a. […] Liver was representative of all normal tissues analysed. (FIG. 5) • d. […] Levels of VDA2 in tumour were 10 times higher than that detected in normal tissues following administration of prodrug-2 (FIG. 6) • g. […]

[2] = Ex vivo stability in normal mouse liver homogenate (LC/MS/MS); type: in vitro ADME
Text: as §1, §2

[3] = test system: HT1080 xenograft tumour homogenate; test: Ex vivo metabolism in experimental human tumour model homogenate (HT1080 xenograft); type: in vitro ADME
Text: as §1, §2

[4] = Levels of prodrug and VDA2 in plasma, tissues and tumour after intraperitoneal dosing of mice bearing subcutaneous HT1080 tumour; type: in vivo; details: HT1080 tumour bearing mice; for prodrug tissue distribution: all tissues analysed
Text: as §1
[drawing 11] • d) Compound 1 was modified in order to change the MMP-targeting of the compound from being pan-MMP to MT-MMP selective (Prodrug-2) • a. Arginine was incorporated in place of the Glutamic acid at the P4 position • b. […] Prodrug-2 cleavage and metabolism were detected using LC/MS/MS. • a. […] Prodrug-2 is not cleaved by recombinant MMP-9, in contrast to prodrug-1 • d. […] Plasma, tissues and tumours were collected at regular intervals post-dosing. Levels of prodrug-2 and VDA2 were assessed by LC/MS/MS. • a. […] Liver was representative of all normal tissues analysed. (FIG. 5) • d. VDA2 was undetectable in plasma following administration of prodrug-2 (FIG. 6) • e. […] Levels of VDA2 in tumour were 10 times higher than that detected in normal tissues following administration of prodrug-2 (FIG. 6) • g. High levels of prodrug-2 and VDA2 were still detectable in tumour 48 hours post administration.

SMILES	stability in plasma [1]	stability in liver homogenate [2]	metabolism in tumour homogenate ([3]; HT1080 xenograft homogenate (expresses majority of MMPs))	VDA2 levels in normal tissues following prodrug administration [4]	VDA2 levels in tumour following prodrug administration [4]	prodrug levels in the tumour compared with other tissues [4]	VDA2 level in normal tissues after 24 hours post-dosing with prodrug ([4]; 24 hours)	VDA2 level in tumour after 24 hours post-dosing with prodrug ([4]; 24 hours)	prodrug level after 24 hours post-dosing ([4]; 24 hours)	prodrug tissue distribution [4]	metabolism in tumour homogenate expressing high MT-MMP levels ([3]; HT1080 homogenate, relative to homogenate expressing low MT-MMP levels (MCF7))	VDA2 level in plasma following prodrug administration [4]	levels of VDA2 in tumour relative to normal tissues following prodrug administration [4] [times]	VDA2 level in tumour 48 hours post prodrug administration ([4]; 48 hours)	prodrug level in tumour 48 hours post administration ([4]; 48 hours)
COc1cc2c(c(OC)c1OC)-c1ccc(NC(=O)[C@H](Cc3ccc(O)cc3)NC(=O)[C@H](CC(C)C)NC(=O)[C@H](Cc3ccc(O)cc3)NC(=O)[C@H](CCc3ccccc3)NC(=O)CNC(=O)[C@H](CCCNC(N)=O)NC(=O)[C@@H]3CCCN3C(=O)[C@H](CCC(=O)O)NC(=O)CCNC(=S)Nc3ccc4c(c3)C(=O)OC43c4ccc(O)cc4Oc4cc(O)ccc43)c(=O)cc1[C@@H](NC(C)=O)CC2 [Prodrug-1] ({FITC-βAla}-EP[Cit]G[hPhe]YLY-{NH(Colchicin-10-yl)})	stable	stable	metabolised	detectable at low levels	high levels	Highest	undetectable	still detectable at high levels	not detectable	accumulated and was detected in all tissues analysed					
COc1cc2c(c(OC)c1OC)-c1ccc(NC(=O)[C@H](Cc3ccc(O)cc3)NC(=O)[C@H](CC(C)C)NC(=O)[C@H](Cc3ccc(O)cc3)NC(=O)[C@H](CCc3ccccc3)NC(=O)CNC(=O)[C@H](CCCNC(N)=O)NC(=O)[C@H](CO)NC(=O)[C@H](CCCNC(=N)N)NC(=O)CCNC(=S)Nc3ccc4c(c3)C(=O)OC43c4ccc(O)cc4Oc4cc(O)ccc43)c(=O)cc1[C@@H](NC(C)=O)CC2 [Prodrug-2] ({FITC-βAla}-RS[Cit]G[hPhe]YLY-{NH(Colchicin-10-yl)})	remained intact	remained stable			High concentrations	Highest				accumulated and was detected in all tissues analysed	metabolised rapidly	undetectable	10	High levels	High levels
